Data on one molecule can be found in article doi:10.1101/2020.06.17.158394 (bioRxiv, 2020).

In one assay the target is KaiC-EE (S. elongatus) (UniProt Q79PF4). The experiment in a line: fluorescence polarisation.
Another assay has as its target T1, KaiC (S. elongatus, UniProt Q79PF4 1-519).
T1 sequence: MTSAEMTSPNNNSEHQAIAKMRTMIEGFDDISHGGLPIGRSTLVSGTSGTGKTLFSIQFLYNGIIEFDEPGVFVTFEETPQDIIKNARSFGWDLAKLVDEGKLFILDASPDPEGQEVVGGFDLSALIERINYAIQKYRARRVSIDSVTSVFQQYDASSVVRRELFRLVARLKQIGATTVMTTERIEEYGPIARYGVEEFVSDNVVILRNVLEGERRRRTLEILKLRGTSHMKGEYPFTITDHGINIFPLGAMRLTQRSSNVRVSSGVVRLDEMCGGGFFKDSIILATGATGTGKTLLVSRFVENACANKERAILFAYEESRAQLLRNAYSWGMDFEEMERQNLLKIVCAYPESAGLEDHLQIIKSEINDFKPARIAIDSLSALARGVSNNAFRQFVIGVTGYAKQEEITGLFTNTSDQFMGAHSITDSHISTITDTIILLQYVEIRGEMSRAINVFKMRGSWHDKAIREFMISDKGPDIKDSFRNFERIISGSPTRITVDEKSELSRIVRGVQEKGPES
The experiment in a line: fluorescence polarisation.

B1: full-length SasA (enzyme)
chain: MGESLSPQALAQPLLLQLFVDTRPLSQHIVQRVKNILAAVEATVPISLQVINVADQPQLVEYYRLVVTPALVKIGPGSRQVLSGIDLTDQLANQLPQWLVQQEAFFADREPPEVNIPFTELGQPETPALQQADAFFQLQQQYADLSERTKFLEQVIALVAHDLRNPLTAALLAVDTIQIRSQSFSVATAKEMQGLCSLFDQARSQLREIERMIAEILEATRHSGESLRINPREVVFEPLLQQVLEQLHERWRSKQQQLITDVPGDLPTLYADPDRLRQVLVNLLDNAIKYTPPGGTITIAALHRTSQKVQISISDTGSGIPRDQLSVIFKNLVRLSRDSSQEGYGIGLSVCQRIVQAHFGRIWVASELGQGSTFHFTMPVYRYTMPC
Consider B1, for which the fold increase in affinity against SasAtrx with KaiC-EE (S. elongatus) is greater than 100 fold. Besides, the binding result with KaiC is on record as “binds”.
